The text below walks through data of the DeepSol protein solubility set.

A short description of the data set: soluble on expression in E. coli; label from the status in PepcDB or PDB records.
Regarding “MLLLSGFRYFRAVGVALLFLSVSLATVRADVRPETWQVVVDAGSSKTRGILYRLSADAVTPVVEYNSKLPLARYAGVPDESGNLLIAPLLDTLERLANDQKYALEKKTVLVNVLGTAGMRELSAGQQGVIYEAVKKSILAKGWALGQVGTIDGRDEGIFAWVHLNFLKGLATSDNTLGIIEMGGASSQITFALRSPPMDKADVSQNARTVMWDGKTYSVISESLLGLGADAARTAMNKVRPQDQRCYPQGALIMKVPTTGAFDFTACDLVYDEAIAANYQSEIKKLDAIVASSNYTQTDFVGLSSLYYTLNFFNNDLPERGTLKSALEQSCQRYADIEERLRQDDSKDKYQPENKCANGVFVYDLLYDYLQLGDGRLTALKKVENMDIRWTDGFLLLGKQAPLEHHHHHH”, the “soluble on expression in E. coli” value is reported as “not soluble”.

Take “MLLSLYIPPGRPLSDVMTLLRQEYSITDNIKLKRTRQAVKRALSAAMDRLQMLTSTPPNGLVLFCGEDMSTGKFECFMFSPPEPIRVFYYRTDKRFITDFLEDMVEDNNAIGIIIVERDQATIGLLKGARLEVLKELEGFVPGKHKMGGQSQRRYERIIEQMVDEFFKKVGEEASNLLVPLAEKGVLKGVIVAGPGLAKQEFVEGNYLDYRLKKILAPELVDVAYQGLQGLKEAVMKAEKVVEAQMYRDAVNAMEEFKLHLAKGTGMIVYGEKDVEAALEMGAVKTLLIHESREDLEEWVEKAKSSGAQVIVVPESLAEAEWFLKTFGGLAGILRFRISTV”: the “soluble on expression in E. coli” value was “soluble”.

With “MLLTLNALPFVLVNCGGKKKPAPPPKAAAKPMAAPAGGAGGAGGAGGAGKSDSFDSKKQDIPSSKKEEPVAPKKEDEGNYEELAIPQ”, the “soluble on expression in E. coli” value is listed as “not soluble”.

“MLLTNHAKERIAKRLAKKRKIYKIYSTLFSFLKNSIRIEVEDTILFTDGNKTLVATKLDGELLDLGDIVKRVKDIEESYECVFWDKKIAKITKPIKFLQEIPPGKYYFYINKEKKVLYIGTHEPLLALTFRPAKRWERALFYFSLEHHHHHH”: the “soluble on expression in E. coli” value is reported as “not soluble”.

As for “MLMPKRTKYRKQMKGRNRGKAHRGNSIAFGDIAIKAIEHGRIDSRQIESARVAMTRHIKRAGKVWIRVFPDKPLTAKPLETRMGKGKGSVEKWVMNIKPGRIVYEMLGIEEGLAREALALAQSKLPFKTKIVTCESENEIYLEHHHHHH”, the “soluble on expression in E. coli” value is reported as “soluble”.

Turning to “MLNDVYNKRIIELAGNIPRIGRLERPDASATAHSKLCGSTVTIDLKMDGDTVTDFAHIVKACALGQASSSIMASHVVGSTASELKALRETVRKMLKENGAPPDGKWADIAMLEPVRDYKARHASTLLTFDAVVDAIGQIEAQNDGAKATA”, the “soluble on expression in E. coli” value is on record as “not soluble”.

With “MLNEGAKNTEKQKVMEIITVAEPMSESELESIRNFLFRIIRREFGFGYIPEYHRDIINLEEYYLKPPRNIFLFASQGGRVIGTLGLRAYDREFEGLNYDPETTASLWRVFVDEDHRRMGVASRLVEIAEKEAASLGYQRIYLHTHKYVGGALEFWLSRGYRVTVDTGNELGTVHMEKTLSCNSNAITRIPEKTSELSHSLPRTQKV”, the “soluble on expression in E. coli” value is given as “soluble”.

Regarding “MLNGKNKSAVNRQRFLKRHKEQIKESVADAVNRRSITNTETGEDVSIPHKDINEPIFHQGKGGVRERVHPGNDQFITGDKIERPKGGGQGSGSGEGNASPDGEGQDEFVFQISKDEYLDILFEDLELPNLEKNQIAKITEWKTHRAGFQTAGIPSNISVIRSLQQSLARRTAMTAGKKRLLKELEDELTRIKNIEPAQQLEENRLKKEIEELRKKIENVPFIDTFDLRFKNYEKRPVPSSQAVMFCLMDVSGSMDQATKDIAKRFYVLLYLFLTRTYENVDVVFIRHHTQAKEVDEHEFFYSQETGGTIVSSALKLMDEIVKERYPVGQWNIYAAQASDGDNWADDSPRCRDLLVNKLLPNCQYYSYIEITRRSHQTLWHEYEKLTDEFPNFAMKNIRSVEDIFPVFRELFQKETALEHHHHHH”, the “soluble on expression in E. coli” value is “not soluble”.

As to “MLNKVFIIGRLTGDPVITYLPSGTPVVEFTLAYNRRYKNQNGEFQEESHFFDVKAYGKMAEDWATRFSKGYLVLVEGRLSQEKWEKEGKKFSKVRIIAENVRLINRPKGAELQAEEEEEVPPIEEEIEKLGKEEEKPFTDEEDEIPF”, the “soluble on expression in E. coli” value is “soluble”.

For “MLNLCDEDFDAMELVEGALALNKAINPETQLEWAHIELARLLKEAELALVHERDEKARFEAFLRLFYQEWGFSGDREAYFDSRNAFIDQVLQRRKGIPVSLGSLLLYLGHKLGFPLNGISFPTQFLLSLNWSGERPIYLNPFNGEIVSQHTLQAWLVGHKGPLAKLKPQHLQSVDNPTIIGRWLALLKSALLREERYTLALRCTDLALTFVPDDPYEIRDRGFIYQQLQCHQIAISDYQYFIEHCPNDPAAELLKTQVNALSHDSQVTLHLEHHHHHH”, the “soluble on expression in E. coli” value is “soluble”.

With “MLNLSSNQAAAVTVSETAELPEALEQLGLSNSRPVLVIVGGASQTSEADFLRIQSLFVEVLAPIAQSLGAYVVDGGTDAGVMRLMGDARSQINGQFPLIGVAPTAKVILPNQTTILADDATPLEPHHSHFVLIPGSKWGDESPWIVKVATLLANGLPSITVLINGGEISFLEHHHHHH”, the “soluble on expression in E. coli” value is on record as “soluble”.

For “MLNPNKWLDVKKMLPRLAQKQWYAKTRYGYARGGETVHFVQNVRRYYDILTWVTQPLEHHHHHH”, the “soluble on expression in E. coli” value was “not soluble”.

As for “MLNYELELWEKGLLVAGVDEAGRGPLAGPVVAAAVILPPFTEPFIKGDSKKLTKKEREEAYEEIKNKALAVGTAVVDSAVIDRVNILRATKLAMKRALKDLKYHYDIVITDYVKLEGENCMPLVKGDEKSLNCACASIIAKVIRDKIMEIYHKIYPDFNFASNKGYPSKTHLEKVEKGEYTEIHRKSFSPLKKKLF”, the “soluble on expression in E. coli” value was “soluble”.

With “MLPAVDDRCSGGYAGDVVADETIIDLAGPSEGLGVRPDKQRAAAYAGAYYIRDKTHQLGTGEKMREVTKRGFGIGVTAVSRVGSADDLYSVSPVITAISIDKPSPGSTVALGRALQMHQANGFAASVKTKANARLPYLCVDMGYSVRPDFTTVVHDHGFAPVMRYPVSRQTVWASEKPEFGSQSPGPVQINSAFYCPAALPLARQRRLVRRLNELLDEQDGFEAHDQALQKLLPLLMGTNSRPLKFVSKRKRSPETIPTYQIDLVCPAVQGRVKCPLKPESLIIAFDQPEVKPTWSADRYRCCSKSQIRHTYSSEQWKLAQWGMVPGSWEHAIYYEAARSLTEQRFSIMKSQHLSGREHLKWSPRREPMISVIIALWIAATNLAIQDSHVAKMPRPSSIKKQKRRLERDLGRALMSTPPRT”, the “soluble on expression in E. coli” value was “not soluble”.

For “MLPCLNEEESLPAVLAAIPAGYRALVVDNNSTDDTATVAARHGAQVVVEPRPGYGSAVHAGVLAATTPIVAVIDADGSMDAGDLPKLVAELDKGADLVTGRRRPVAGLHWPWVARVGTVVMSWRLRTRHRLPVHDIAPMRVARREALLDLGVVDRRSGYPLELLVRAAAAGWRVVELDVSYGPRTGGKSKVSGSLRGSIIAILDFWKVISLEHHHHHH”, the “soluble on expression in E. coli” value is on record as “not soluble”.

On to “MLPDVQLLKPEVPIGLSRVGATGIKKLVEVQREGKRPIILISTFDVFVDLPAHLKGVNLSRNFEVIDEVLETLTAKPIENIEDLVVEIADHLLKRHEYATKAEARMNSELIMRKRTPKTGQRTQEVVKIFGEATLGRDGSKVIMVGVEVTGITACPCAQELVKASSAERLAKMGFDEETIQKILDAIPVATHNQRGRATLKVQVTDSFKVPIAKLIDVAKSSMSYETYEILKREDELAVVEAAHRNTRFVEDGVRYMAMELLKTFPNAPDDILVFLRQENEESIHQHNVVAERFATFGELRNEIGSPDASGSSAD”, for which the “soluble on expression in E. coli” value was “soluble”.

With “MLPETDLRRVAAAAAAMHRVAEIRRTRVSGRMDNHERRVGTEWVVTLQGADFPVTIAADHDGSTVSFDDGSSMRVTSDWTPLEHHHHHH”, the “soluble on expression in E. coli” value is listed as “not soluble”.

For the sequence “MLPEYGPLAPSEEELHLFGDVDRLKVLEIGCGSGHSLKYLDEKQAGELWGIDLSTKQIEAAQTVLKDSKAPVTLFESPMEVNPGLPTDYFDIVFSIYALGWTTNLTKTLENVYRYLKPGGSFIFSWEHPMYNRVRQHQHGLTVDKSYHEEGAYAHEAWSSPAIMQQYRLSTYLNHLIDHGFKVERVIEDVCLADAQKHTNGWYGYEKAQMIPTTLIIKCLKQLEHHHHHH”, the “soluble on expression in E. coli” value is “soluble”.

In the case of “MLPKPGTYYLPWEVSAGQVPDGSTLRTFGRLCLYDMIQSRVTLMAQHGSDQHQVLVCTKLVEPFHAQVGSLYIVLGELQHQQDRGSVVKARVLTCV”, the “soluble on expression in E. coli” value is reported as “not soluble”.

As to “MLPKYEQIKQDLLREIKNHTFIPGDKFYSEADIKRKYAVSSITAVKALNELTSAGYLYRIQGKGTFVSKSKVSQNVKFSDIELHSLDSEKVKVLSIEEDNQAEILKELGLPANASYYRIKRVRYSEDTPFLVHITHLPKKLVKEPLSKDLTAYASVYERVRKDFSVDLFSLASVETNEIVFPEDAELLNLLQLSFREPAVKQVKHSYLADGSVAEYIISYKHWKYFKTKIEVEAE”, the “soluble on expression in E. coli” value is “not soluble”.

As for “MLPLIKRLFSSAPKDGEGAQKKWPFSYVVVLLLAGVALMAASHWANSGEEAEAKPSAGQPSAPAEPAFLASKETKEKVIAAYEERYEKELKAALEAIEGVDDVTVVVNLDSTELKLYEKKRSTQQQTTEESDKEGGKRTIENESTNEEVIIIHNGEEETPLVVATKKPDIRGVLVVAKGADNLQIKKWIVEAVTRVLNVPSYRVAVLPKK”, the “soluble on expression in E. coli” value was “not soluble”.

As to “MLPSHRSPDSATHDRIRKMTMNAMPQTAAQNETLHTCSIIVDDAQDFSPMLLDAGRDDTLISESMIPQIRTVAALIAAERHDFSRSSPAEFTDAADFFAARILVLGVRRFHLDVSLLQILKTANSRARRFAEKHRLFFTPAQAELSLNKHKNRRLLTVETEHEVENKGNPVANSLAFVRKLHTLPL”, the “soluble on expression in E. coli” value is “not soluble”.

Turning to “MLPSQHKLSNSEQFRATIRKGKRAGRSTVVLHFYAEATAGNLATAGGPRFGLVVSKAVGNAVTRHRVSRQLRHVVIAMKDQFPASSHVVVRALPPAATASSEELRADVQAALDKLNRKR”, the “soluble on expression in E. coli” value is “not soluble”.

On to “MLPVTYRLIPQSGVSTYRLNTADTPVFPDIPEHAPNPSRLRLAHDSLAINSEFRLEPECVVEYLISGAGGIDPDTEIDDDTYDECYDELSSVLQNAYTQSETFRRLMNYAYEKELHDVEQRWLLGAGEAFETTVAQEHFKLSEGRKVICLNLDDSDDSYTEHYESNEGRQLFDTKRSFIHEVVHALTHLQDKEENHPRGPVVEYTNIILKEMGHPSPPRMVYIFNK”, for which the “soluble on expression in E. coli” value was “not soluble”.

Regarding “MLQKPKSVKLRALRSPRKFGVAGRSCQEVLRKGCLRFQLPERGSRLCLYEDGTELTEDYFPSVPDNAELVLLTLGQAWQGYVSDIRRFLSAFHEPQVGLIQAAQQLLCDEQAPQRQRLLADLLHNVSQNIAAETRAEDPPWFEGLESRFQSKSGYLRYSCESRIRSYLREVSSYPSTVGAEAQEEFLRVLGSMCQRLRSMQYNGSYFDRGAKGGSRLCTPEGWFSCQGPFDMDSCLSRHSINPYSNRESRILFSTWNLDHIIEKKRTIIPTLVEAIKEQDGREVDWEYFYGLLFTSENLKLVHIVCHKKTTHKLNCDPSRIYKPQTRLKRKQPVRKRQLEHHHHHH”, the “soluble on expression in E. coli” value is “not soluble”.

With “MLQLFSFLAIFYISLSNCDPQILRLKSIPSPIPNVEEGAKLYLASNDDNGLLKNIQVQTAGGSFTLDQINVNTANGNAKSIVIDGGLVISTSNSNADTSGLTGFLYLTTKKQADDPAFSVYVIKQAQTVSTTQPNSTVVILNTELDNDAFFDHIEPLQIGLDYWYFTASEPMSMTMESKYVSDLVYTTTSVNTTGLVVNDFLFQEHVVKFQLDLTRVRTIGTLVSAIPIASQINVIFNQGGGISAQR”, the “soluble on expression in E. coli” value is listed as “not soluble”.

Consider “MLQPPFNIKVTNITLTTAVVTWQPPILPIEGILVTFGRKNDPSDETTVDLTSSITSLTLTNLEPNTTYEIRIVARNGQQYSPPVSTTFTTGSLEHHHHHH”, for which the “soluble on expression in E. coli” value is listed as “soluble”.
